Laboratory results taken from patent publication EP4692114A1, “CALCITONIN ANALOGUE, AND DERIVATIVE THEREOF AND USE THEREOF” (Hangzhou Sciwind Biosciences Co., Ltd., priority 2023, dated 2024).
*1 amine or outer side, *2 acyl side, *3 side chain or, on linkers, in order; H or OH if unused. Primed or numbered codes have the meaning given here. [ ]: non-standard residue; d: D form. The star is where a group is joined. C20 diacid = O=C(O)CCCCCCCCCCCCCCCCCCC(=O)*; C18 diacid = O=C(O)CCCCCCCCCCCCCCCCC(=O)*; γGlu = O=C(O)[C@H](CCC(=O)[*:2])N[*:1]; βAsp = O=C(O)[C@H](CC(=O)[*:2])N[*:1]; Trx′ = not defined here; AEEA = NCCOCCOCC(=O)O

T1: human amylin receptor (AMY3) on CHO-K1/Gal5/AMY3 cells (human, UniProt P30988 25-474; O60896 24-148)
T1 sequence (looked up) 1: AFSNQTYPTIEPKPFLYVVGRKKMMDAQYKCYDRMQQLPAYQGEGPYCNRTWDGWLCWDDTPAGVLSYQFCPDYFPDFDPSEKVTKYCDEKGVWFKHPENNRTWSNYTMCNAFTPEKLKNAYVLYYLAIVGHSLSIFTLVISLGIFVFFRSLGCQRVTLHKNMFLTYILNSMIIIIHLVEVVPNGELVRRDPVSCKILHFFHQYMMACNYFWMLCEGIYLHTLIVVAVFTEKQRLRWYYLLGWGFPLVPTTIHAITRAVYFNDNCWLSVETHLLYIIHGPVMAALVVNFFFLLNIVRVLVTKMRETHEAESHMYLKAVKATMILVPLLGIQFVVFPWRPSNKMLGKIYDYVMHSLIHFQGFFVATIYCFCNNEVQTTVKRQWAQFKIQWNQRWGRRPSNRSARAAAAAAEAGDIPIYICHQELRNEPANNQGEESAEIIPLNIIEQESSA
T1 sequence (looked up) 2: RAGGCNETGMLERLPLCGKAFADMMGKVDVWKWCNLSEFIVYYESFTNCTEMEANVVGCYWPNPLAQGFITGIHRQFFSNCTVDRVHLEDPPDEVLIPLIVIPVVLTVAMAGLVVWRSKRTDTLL

B1: calcitonin derivative M26 (peptide)
peptide: {C20 diacid-γGlu}-VSQLSTVVLGRLSQELHRLQDYPRTDVGSGSP-NH2
SMILES: CC(C)C[C@H](NC(=O)[C@H](CCCNC(=N)N)NC(=O)CNC(=O)[C@H](CC(C)C)NC(=O)[C@@H](NC(=O)[C@@H](NC(=O)[C@@H](NC(=O)[C@H](CO)NC(=O)[C@H](CC(C)C)NC(=O)[C@H](CCC(N)=O)NC(=O)[C@H](CO)NC(=O)[C@@H](NC(=O)CC[C@H](NC(=O)CCCCCCCCCCCCCCCCCCC(=O)O)C(=O)O)C(C)C)[C@@H](C)O)C(C)C)C(C)C)C(=O)N[C@@H](CO)C(=O)N[C@@H](CCC(N)=O)C(=O)N[C@@H](CCC(=O)O)C(=O)N[C@@H](CC(C)C)C(=O)N[C@@H](Cc1c[nH]cn1)C(=O)N[C@@H](CCCNC(=N)N)C(=O)N[C@@H](CC(C)C)C(=O)N[C@@H](CCC(N)=O)C(=O)N[C@@H](CC(=O)O)C(=O)N[C@@H](Cc1ccc(O)cc1)C(=O)N1CCC[C@H]1C(=O)N[C@@H](CCCNC(=N)N)C(=O)N[C@H](C(=O)N[C@@H](CC(=O)O)C(=O)N[C@H](C(=O)NCC(=O)N[C@@H](CO)C(=O)NCC(=O)N[C@@H](CO)C(=O)N1CCC[C@H]1C(N)=O)C(C)C)[C@@H](C)O
B2: calcitonin derivative M60 (peptide)
peptide: {C20 diacid}-D[AEEA][AEEA]ASQLSTAVLGRLSEELHRLQDYPRTDVGSGSP-NH2
SMILES: CC(C)C[C@H](NC(=O)[C@H](CCCNC(=N)N)NC(=O)CNC(=O)[C@H](CC(C)C)NC(=O)[C@@H](NC(=O)[C@H](C)NC(=O)[C@@H](NC(=O)[C@H](CO)NC(=O)[C@H](CC(C)C)NC(=O)[C@H](CCC(N)=O)NC(=O)[C@H](CO)NC(=O)[C@H](C)NC(=O)COCCOCCNC(=O)COCCOCCNC(=O)[C@H](CC(=O)O)NC(=O)CCCCCCCCCCCCCCCCCCC(=O)O)[C@@H](C)O)C(C)C)C(=O)N[C@@H](CO)C(=O)N[C@@H](CCC(=O)O)C(=O)N[C@@H](CCC(=O)O)C(=O)N[C@@H](CC(C)C)C(=O)N[C@@H](Cc1c[nH]cn1)C(=O)N[C@@H](CCCNC(=N)N)C(=O)N[C@@H](CC(C)C)C(=O)N[C@@H](CCC(N)=O)C(=O)N[C@@H](CC(=O)O)C(=O)N[C@@H](Cc1ccc(O)cc1)C(=O)N1CCC[C@H]1C(=O)N[C@@H](CCCNC(=N)N)C(=O)N[C@H](C(=O)N[C@@H](CC(=O)O)C(=O)N[C@H](C(=O)NCC(=O)N[C@@H](CO)C(=O)NCC(=O)N[C@@H](CO)C(=O)N1CCC[C@H]1C(N)=O)C(C)C)[C@@H](C)O
B3: calcitonin derivative M61 (peptide)
peptide: {C20 diacid-Trx′-AEEA-AEEA}-ASQLSTAVLGRLSEELHRLQDYPRTDVGSGSP-NH2
modifications: reading uncertain
B4: calcitonin derivative M12 (peptide)
peptide: {C20 diacid-γGlu}-ASQLSTAVLGRLSTELHRLQDYPRTDVGSGSP-NH2
SMILES: CC(C)C[C@H](NC(=O)[C@H](CCCNC(=N)N)NC(=O)CNC(=O)[C@H](CC(C)C)NC(=O)[C@@H](NC(=O)[C@H](C)NC(=O)[C@@H](NC(=O)[C@H](CO)NC(=O)[C@H](CC(C)C)NC(=O)[C@H](CCC(N)=O)NC(=O)[C@H](CO)NC(=O)[C@H](C)NC(=O)CC[C@H](NC(=O)CCCCCCCCCCCCCCCCCCC(=O)O)C(=O)O)[C@@H](C)O)C(C)C)C(=O)N[C@@H](CO)C(=O)N[C@H](C(=O)N[C@@H](CCC(=O)O)C(=O)N[C@@H](CC(C)C)C(=O)N[C@@H](Cc1c[nH]cn1)C(=O)N[C@@H](CCCNC(=N)N)C(=O)N[C@@H](CC(C)C)C(=O)N[C@@H](CCC(N)=O)C(=O)N[C@@H](CC(=O)O)C(=O)N[C@@H](Cc1ccc(O)cc1)C(=O)N1CCC[C@H]1C(=O)N[C@@H](CCCNC(=N)N)C(=O)N[C@H](C(=O)N[C@@H](CC(=O)O)C(=O)N[C@H](C(=O)NCC(=O)N[C@@H](CO)C(=O)NCC(=O)N[C@@H](CO)C(=O)N1CCC[C@H]1C(N)=O)C(C)C)[C@@H](C)O)[C@@H](C)O
B5: calcitonin derivative M27 (peptide)
peptide: {C20 diacid-γGlu}-ISQLSTIVLGRLSQELHRLQDYPRTDVGSGSP-NH2
SMILES: CC[C@H](C)[C@H](NC(=O)CC[C@H](NC(=O)CCCCCCCCCCCCCCCCCCC(=O)O)C(=O)O)C(=O)N[C@@H](CO)C(=O)N[C@@H](CCC(N)=O)C(=O)N[C@@H](CC(C)C)C(=O)N[C@@H](CO)C(=O)N[C@H](C(=O)N[C@H](C(=O)N[C@H](C(=O)N[C@@H](CC(C)C)C(=O)NCC(=O)N[C@@H](CCCNC(=N)N)C(=O)N[C@@H](CC(C)C)C(=O)N[C@@H](CO)C(=O)N[C@@H](CCC(N)=O)C(=O)N[C@@H](CCC(=O)O)C(=O)N[C@@H](CC(C)C)C(=O)N[C@@H](Cc1c[nH]cn1)C(=O)N[C@@H](CCCNC(=N)N)C(=O)N[C@@H](CC(C)C)C(=O)N[C@@H](CCC(N)=O)C(=O)N[C@@H](CC(=O)O)C(=O)N[C@@H](Cc1ccc(O)cc1)C(=O)N1CCC[C@H]1C(=O)N[C@@H](CCCNC(=N)N)C(=O)N[C@H](C(=O)N[C@@H](CC(=O)O)C(=O)N[C@H](C(=O)NCC(=O)N[C@@H](CO)C(=O)NCC(=O)N[C@@H](CO)C(=O)N1CCC[C@H]1C(N)=O)C(C)C)[C@@H](C)O)C(C)C)[C@@H](C)CC)[C@@H](C)O
B6: calcitonin derivative M13 (peptide)
peptide: {C20 diacid-γGlu}-ASQLSTAVLGRLSQELHRLEDYPRTDVGSGSP-NH2
SMILES: CC(C)C[C@H](NC(=O)[C@H](CCCNC(=N)N)NC(=O)CNC(=O)[C@H](CC(C)C)NC(=O)[C@@H](NC(=O)[C@H](C)NC(=O)[C@@H](NC(=O)[C@H](CO)NC(=O)[C@H](CC(C)C)NC(=O)[C@H](CCC(N)=O)NC(=O)[C@H](CO)NC(=O)[C@H](C)NC(=O)CC[C@H](NC(=O)CCCCCCCCCCCCCCCCCCC(=O)O)C(=O)O)[C@@H](C)O)C(C)C)C(=O)N[C@@H](CO)C(=O)N[C@@H](CCC(N)=O)C(=O)N[C@@H](CCC(=O)O)C(=O)N[C@@H](CC(C)C)C(=O)N[C@@H](Cc1c[nH]cn1)C(=O)N[C@@H](CCCNC(=N)N)C(=O)N[C@@H](CC(C)C)C(=O)N[C@@H](CCC(=O)O)C(=O)N[C@@H](CC(=O)O)C(=O)N[C@@H](Cc1ccc(O)cc1)C(=O)N1CCC[C@H]1C(=O)N[C@@H](CCCNC(=N)N)C(=O)N[C@H](C(=O)N[C@@H](CC(=O)O)C(=O)N[C@H](C(=O)NCC(=O)N[C@@H](CO)C(=O)NCC(=O)N[C@@H](CO)C(=O)N1CCC[C@H]1C(N)=O)C(C)C)[C@@H](C)O
B7: calcitonin derivative M44 (peptide)
peptide: {C18 diacid}-DASQLSTAVLGRLSDELHRLQDYPRTDVGSGSP-NH2
SMILES: CC(C)C[C@H](NC(=O)[C@H](CCCNC(=N)N)NC(=O)CNC(=O)[C@H](CC(C)C)NC(=O)[C@@H](NC(=O)[C@H](C)NC(=O)[C@@H](NC(=O)[C@H](CO)NC(=O)[C@H](CC(C)C)NC(=O)[C@H](CCC(N)=O)NC(=O)[C@H](CO)NC(=O)[C@H](C)NC(=O)[C@H](CC(=O)O)NC(=O)CCCCCCCCCCCCCCCCC(=O)O)[C@@H](C)O)C(C)C)C(=O)N[C@@H](CO)C(=O)N[C@@H](CC(=O)O)C(=O)N[C@@H](CCC(=O)O)C(=O)N[C@@H](CC(C)C)C(=O)N[C@@H](Cc1c[nH]cn1)C(=O)N[C@@H](CCCNC(=N)N)C(=O)N[C@@H](CC(C)C)C(=O)N[C@@H](CCC(N)=O)C(=O)N[C@@H](CC(=O)O)C(=O)N[C@@H](Cc1ccc(O)cc1)C(=O)N1CCC[C@H]1C(=O)N[C@@H](CCCNC(=N)N)C(=O)N[C@H](C(=O)N[C@@H](CC(=O)O)C(=O)N[C@H](C(=O)NCC(=O)N[C@@H](CO)C(=O)NCC(=O)N[C@@H](CO)C(=O)N1CCC[C@H]1C(N)=O)C(C)C)[C@@H](C)O
B8: calcitonin derivative M43 (peptide)
peptide: {C20 diacid-βAsp}-ASQLSTAVLGRLSDELHRLQDYPRTDVGSGSP-NH2
SMILES: CC(C)C[C@H](NC(=O)[C@H](CCCNC(=N)N)NC(=O)CNC(=O)[C@H](CC(C)C)NC(=O)[C@@H](NC(=O)[C@H](C)NC(=O)[C@@H](NC(=O)[C@H](CO)NC(=O)[C@H](CC(C)C)NC(=O)[C@H](CCC(N)=O)NC(=O)[C@H](CO)NC(=O)[C@H](C)NC(=O)C[C@H](NC(=O)CCCCCCCCCCCCCCCCCCC(=O)O)C(=O)O)[C@@H](C)O)C(C)C)C(=O)N[C@@H](CO)C(=O)N[C@@H](CC(=O)O)C(=O)N[C@@H](CCC(=O)O)C(=O)N[C@@H](CC(C)C)C(=O)N[C@@H](Cc1c[nH]cn1)C(=O)N[C@@H](CCCNC(=N)N)C(=O)N[C@@H](CC(C)C)C(=O)N[C@@H](CCC(N)=O)C(=O)N[C@@H](CC(=O)O)C(=O)N[C@@H](Cc1ccc(O)cc1)C(=O)N1CCC[C@H]1C(=O)N[C@@H](CCCNC(=N)N)C(=O)N[C@H](C(=O)N[C@@H](CC(=O)O)C(=O)N[C@H](C(=O)NCC(=O)N[C@@H](CO)C(=O)NCC(=O)N[C@@H](CO)C(=O)N1CCC[C@H]1C(N)=O)C(C)C)[C@@H](C)O

The binders below were run against T1, human amylin receptor (AMY3) on … (assay: cell-based or functional assay).

EC50/nM, CRE-luciferase in amylin receptor/CRE-luc CHO cells	Binder
0.079 nM	B1
0.016 nM	B2
0.015 nM	B3
0.017 nM	B4
0.016 nM	B5
0.017 nM	B6
0.016 nM	B7
0.017 nM	B8
